Data from paper PMC4176175, “Requirements for 5′dRP/AP lyase activity in Ku”.

Columns and labels:
Experiment in all cases: EMSA; 1 nM Ku, 1 nM DNA, 15 min; EMSA: 1 nM Ku with 1 nM radiolabeled 30 bp DNA, 15 min, no streptavidin/UDG; buffer, salt, pH and temperature not given in the material
Settings in all cases: protein: recombinant;recombinant, tags: C-terminal His6;, copies: 1;1, label: 3' 32P-cordycepin on strand 1, 5' overhang 3 nt (GUG) on strand 1, 5' overhang 1 nt (T) on strand 2, paired by the added 3' cordycepin
[1] = molecular target: T1, yeast Ku70 WT;yeast Ku80 WT (Saccharomyces cerevisiae;Saccharomyces …, UniProt P32807;Q04437 1-602;1-629, |)
T1 sequence 1: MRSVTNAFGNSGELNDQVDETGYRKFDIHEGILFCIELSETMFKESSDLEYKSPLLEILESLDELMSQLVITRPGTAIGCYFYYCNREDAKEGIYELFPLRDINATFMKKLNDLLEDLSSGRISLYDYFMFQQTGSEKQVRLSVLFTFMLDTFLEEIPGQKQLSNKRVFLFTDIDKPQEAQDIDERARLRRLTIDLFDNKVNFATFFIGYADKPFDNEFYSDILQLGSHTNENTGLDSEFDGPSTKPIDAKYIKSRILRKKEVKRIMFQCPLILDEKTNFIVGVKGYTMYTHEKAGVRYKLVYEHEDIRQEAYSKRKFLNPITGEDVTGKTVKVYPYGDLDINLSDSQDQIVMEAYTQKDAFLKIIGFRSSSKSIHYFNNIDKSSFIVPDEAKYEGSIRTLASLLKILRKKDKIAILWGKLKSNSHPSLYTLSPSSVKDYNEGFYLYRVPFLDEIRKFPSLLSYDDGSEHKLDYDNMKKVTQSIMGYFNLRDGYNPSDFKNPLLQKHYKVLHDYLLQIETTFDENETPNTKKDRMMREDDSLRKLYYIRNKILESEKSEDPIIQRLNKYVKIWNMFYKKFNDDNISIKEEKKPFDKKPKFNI
T1 sequence 2: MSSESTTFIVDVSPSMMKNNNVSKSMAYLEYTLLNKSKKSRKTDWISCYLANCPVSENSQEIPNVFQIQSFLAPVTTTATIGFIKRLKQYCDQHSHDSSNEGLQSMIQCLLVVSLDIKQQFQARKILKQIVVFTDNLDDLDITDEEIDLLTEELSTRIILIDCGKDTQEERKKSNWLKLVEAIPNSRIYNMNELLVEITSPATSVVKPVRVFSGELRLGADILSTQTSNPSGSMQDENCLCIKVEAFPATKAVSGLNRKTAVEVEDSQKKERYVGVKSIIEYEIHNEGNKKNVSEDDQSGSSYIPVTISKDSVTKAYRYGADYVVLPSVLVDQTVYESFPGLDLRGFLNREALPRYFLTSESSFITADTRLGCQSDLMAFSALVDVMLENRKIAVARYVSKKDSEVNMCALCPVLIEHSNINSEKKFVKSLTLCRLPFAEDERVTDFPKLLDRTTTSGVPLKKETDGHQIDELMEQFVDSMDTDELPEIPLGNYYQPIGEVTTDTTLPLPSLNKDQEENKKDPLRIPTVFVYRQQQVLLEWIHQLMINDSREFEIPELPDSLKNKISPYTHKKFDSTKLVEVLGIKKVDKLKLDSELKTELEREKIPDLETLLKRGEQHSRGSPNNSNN

[2] = molecular target: T2, yeast Ku70 2A;yeast Ku80 WT (Saccharomyces cerevisiae;Saccharomyces …, UniProt P32807;Q04437 1-602;1-629, K25A;K161A|)
T2 sequence 1: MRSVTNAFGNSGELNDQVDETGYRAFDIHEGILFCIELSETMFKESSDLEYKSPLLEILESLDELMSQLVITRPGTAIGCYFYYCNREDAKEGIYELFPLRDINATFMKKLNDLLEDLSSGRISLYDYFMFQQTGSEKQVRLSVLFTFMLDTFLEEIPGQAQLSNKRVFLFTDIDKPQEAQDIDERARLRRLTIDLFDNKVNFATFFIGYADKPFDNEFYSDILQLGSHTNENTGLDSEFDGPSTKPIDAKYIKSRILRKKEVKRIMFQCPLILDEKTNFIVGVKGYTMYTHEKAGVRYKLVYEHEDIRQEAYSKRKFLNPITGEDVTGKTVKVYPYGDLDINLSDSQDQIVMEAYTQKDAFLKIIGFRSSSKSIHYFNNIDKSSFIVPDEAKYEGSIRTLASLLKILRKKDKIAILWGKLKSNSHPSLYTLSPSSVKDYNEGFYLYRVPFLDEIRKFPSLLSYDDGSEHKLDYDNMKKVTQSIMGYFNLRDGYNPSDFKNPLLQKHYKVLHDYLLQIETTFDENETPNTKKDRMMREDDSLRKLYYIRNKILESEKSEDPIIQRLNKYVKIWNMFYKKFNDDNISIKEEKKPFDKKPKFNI
T2 sequence 2: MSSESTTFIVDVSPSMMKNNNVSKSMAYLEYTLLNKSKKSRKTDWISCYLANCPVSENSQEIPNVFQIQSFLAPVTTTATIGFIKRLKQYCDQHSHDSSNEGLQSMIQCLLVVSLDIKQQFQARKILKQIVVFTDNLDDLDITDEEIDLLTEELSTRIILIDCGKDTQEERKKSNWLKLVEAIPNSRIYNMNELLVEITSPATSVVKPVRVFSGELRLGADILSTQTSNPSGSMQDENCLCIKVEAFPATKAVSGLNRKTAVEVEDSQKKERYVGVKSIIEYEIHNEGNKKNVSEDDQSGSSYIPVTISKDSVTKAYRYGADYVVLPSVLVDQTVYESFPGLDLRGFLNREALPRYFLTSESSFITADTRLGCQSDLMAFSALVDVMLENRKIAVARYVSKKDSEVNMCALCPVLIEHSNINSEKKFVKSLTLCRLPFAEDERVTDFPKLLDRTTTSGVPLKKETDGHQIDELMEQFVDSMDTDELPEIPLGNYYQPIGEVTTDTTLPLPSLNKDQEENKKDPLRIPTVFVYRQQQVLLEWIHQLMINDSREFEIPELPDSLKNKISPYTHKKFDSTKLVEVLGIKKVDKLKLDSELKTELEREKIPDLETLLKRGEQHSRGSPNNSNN

[3] = molecular target: T3, Xenopus Ku70 WT;Xenopus Ku80 WT (Xenopus laevis;Xenopus laevis, UniProt Q9W626;Q6DDS9 1-611;1-726, |)
T3 sequence 1: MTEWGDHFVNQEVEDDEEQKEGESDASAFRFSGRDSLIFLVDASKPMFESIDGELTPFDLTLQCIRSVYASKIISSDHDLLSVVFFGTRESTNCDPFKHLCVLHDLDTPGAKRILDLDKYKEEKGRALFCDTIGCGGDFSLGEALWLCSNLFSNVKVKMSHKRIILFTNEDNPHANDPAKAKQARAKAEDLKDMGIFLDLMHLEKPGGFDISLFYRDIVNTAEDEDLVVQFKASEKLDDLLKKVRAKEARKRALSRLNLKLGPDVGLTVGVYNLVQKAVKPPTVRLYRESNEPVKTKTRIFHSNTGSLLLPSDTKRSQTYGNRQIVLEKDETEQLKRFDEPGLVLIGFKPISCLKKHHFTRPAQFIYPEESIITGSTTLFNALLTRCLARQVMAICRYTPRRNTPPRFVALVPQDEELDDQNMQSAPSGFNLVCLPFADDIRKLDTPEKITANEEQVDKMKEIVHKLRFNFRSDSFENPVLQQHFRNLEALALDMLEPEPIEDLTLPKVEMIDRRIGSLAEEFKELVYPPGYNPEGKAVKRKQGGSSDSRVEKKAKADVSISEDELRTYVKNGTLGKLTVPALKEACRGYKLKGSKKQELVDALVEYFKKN
T3 sequence 2: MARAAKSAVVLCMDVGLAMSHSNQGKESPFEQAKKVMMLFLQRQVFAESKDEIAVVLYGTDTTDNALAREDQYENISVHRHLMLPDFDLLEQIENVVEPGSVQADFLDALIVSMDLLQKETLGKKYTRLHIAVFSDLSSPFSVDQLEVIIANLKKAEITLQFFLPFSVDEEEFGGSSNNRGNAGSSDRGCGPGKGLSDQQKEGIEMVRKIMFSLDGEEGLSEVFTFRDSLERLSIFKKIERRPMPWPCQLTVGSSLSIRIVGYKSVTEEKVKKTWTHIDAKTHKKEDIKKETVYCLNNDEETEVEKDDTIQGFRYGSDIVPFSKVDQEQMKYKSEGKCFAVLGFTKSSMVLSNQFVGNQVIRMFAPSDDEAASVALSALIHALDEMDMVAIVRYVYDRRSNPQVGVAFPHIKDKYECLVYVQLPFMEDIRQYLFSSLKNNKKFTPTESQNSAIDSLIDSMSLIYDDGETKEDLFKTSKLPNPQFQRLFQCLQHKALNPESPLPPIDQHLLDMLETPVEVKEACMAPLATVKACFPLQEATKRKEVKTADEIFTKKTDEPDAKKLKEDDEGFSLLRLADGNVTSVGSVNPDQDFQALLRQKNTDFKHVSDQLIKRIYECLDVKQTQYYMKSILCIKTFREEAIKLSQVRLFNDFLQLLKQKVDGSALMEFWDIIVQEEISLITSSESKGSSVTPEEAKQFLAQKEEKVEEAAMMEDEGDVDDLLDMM

Measured: binding result

B1: 30 bp EMSA substrate (dsDNA)
DNA 1: GUGGAAATCAAACGTAAGTAGAATCCAAAGTCT
DNA 2: TAGACTTTGGATTCTACTTACGTTTGATTTC
modifications: deoxyuridine at position 2 of strand 1 (no UDG treatment for EMSA); 5' phosphate on strand 1; 5' biotin-TEG on strand 2
binds: all assays above
